Results taken from US20130045895A1 (published 2013).

molecular target: T1, Human Serum Albumin (human, UniProt P02768 25-609); assay: BIAcore, supernatant over immobilised HSA (6036 RU);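 further: expressed culture supernatants of mutant clones diluted 1:1 in HBS-EP buffer and screened for binding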
T1 construct: also called HSA; antigen
T1 sequence (P02768 25-609 limits assumed): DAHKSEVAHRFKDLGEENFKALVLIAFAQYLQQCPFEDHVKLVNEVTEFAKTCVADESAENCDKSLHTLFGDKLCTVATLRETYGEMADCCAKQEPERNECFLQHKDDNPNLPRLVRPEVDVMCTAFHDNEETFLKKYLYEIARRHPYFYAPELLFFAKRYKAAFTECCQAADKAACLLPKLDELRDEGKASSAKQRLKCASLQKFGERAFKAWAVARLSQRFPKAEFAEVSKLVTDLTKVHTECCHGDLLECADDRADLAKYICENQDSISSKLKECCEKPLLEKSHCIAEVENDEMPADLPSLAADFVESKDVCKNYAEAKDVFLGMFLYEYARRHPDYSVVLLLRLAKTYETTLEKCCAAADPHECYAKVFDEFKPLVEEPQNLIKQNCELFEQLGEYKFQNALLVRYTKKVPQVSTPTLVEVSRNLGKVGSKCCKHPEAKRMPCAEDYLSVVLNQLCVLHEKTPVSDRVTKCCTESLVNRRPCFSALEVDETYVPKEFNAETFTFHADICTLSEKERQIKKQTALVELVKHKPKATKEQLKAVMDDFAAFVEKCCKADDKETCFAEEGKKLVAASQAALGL
Method: Screening of expressed supernatants for Protein L and HSA binding: Mutant clones were picked into a 96 well plate format and expressed in 1 mL 2×TY 0.1 mg/ml carbenicillin supplemented with OnEx solutions 1, 2 and 3 according to the manufacturer's instructions (Novagen). Cultures were grown at 30° C. for 3 days at 950 rpm high humidity in an InforsHT shaker. Cells were pelleted by centrifugation (4.5 k in a bench top Sorvall centrifuge for 30 mins) and 75 μL of the supernatant added to an equal volume of HBS-EP buffer (GE Healthcare).

| Binder | binding result |
| --- | --- |
| DOM7h-14 A43C (other) VL: DIQMTQSPSSLSASVGDRVTITCRASQWIGSQLSWYQQKPGKCPKLLIMWRSSLQSGVPSRFSGSGSGTDFTLTISSLQPEDFATYYCAQGAALPRTFGQGTKVEIKR | binds |
| DOM7h-14 A43E (other) VL: DIQMTQSPSSLSASVGDRVTITCRASQWIGSQLSWYQQKPGKEPKLLIMWRSSLQSGVPSRFSGSGSGTDFTLTISSLQPEDFATYYCAQGAALPRTFGQGTKVEIKR | binds |
| DOM7h-14 A43F (other) VL: DIQMTQSPSSLSASVGDRVTITCRASQWIGSQLSWYQQKPGKFPKLLIMWRSSLQSGVPSRFSGSGSGTDFTLTISSLQPEDFATYYCAQGAALPRTFGQGTKVEIKR | binds |
| DOM7h-14 A43G (other) VL: DIQMTQSPSSLSASVGDRVTITCRASQWIGSQLSWYQQKPGKGPKLLIMWRSSLQSGVPSRFSGSGSGTDFTLTISSLQPEDFATYYCAQGAALPRTFGQGTKVEIKR | binds |
| DOM7h-14 A43H (other) VL: DIQMTQSPSSLSASVGDRVTITCRASQWIGSQLSWYQQKPGKHPKLLIMWRSSLQSGVPSRFSGSGSGTDFTLTISSLQPEDFATYYCAQGAALPRTFGQGTKVEIKR | binds |
| DOM7h-14 A43I (other) VL: DIQMTQSPSSLSASVGDRVTITCRASQWIGSQLSWYQQKPGKIPKLLIMWRSSLQSGVPSRFSGSGSGTDFTLTISSLQPEDFATYYCAQGAALPRTFGQGTKVEIKR | binds |
| DOM7h-14 A43K (other) VL: DIQMTQSPSSLSASVGDRVTITCRASQWIGSQLSWYQQKPGKKPKLLIMWRSSLQSGVPSRFSGSGSGTDFTLTISSLQPEDFATYYCAQGAALPRTFGQGTKVEIKR | binds |
| DOM7h-14 A43L (other) VL: DIQMTQSPSSLSASVGDRVTITCRASQWIGSQLSWYQQKPGKLPKLLIMWRSSLQSGVPSRFSGSGSGTDFTLTISSLQPEDFATYYCAQGAALPRTFGQGTKVEIKR | binds |
| DOM7h-14 A43M (other) VL: DIQMTQSPSSLSASVGDRVTITCRASQWIGSQLSWYQQKPGKMPKLLIMWRSSLQSGVPSRFSGSGSGTDFTLTISSLQPEDFATYYCAQGAALPRTFGQGTKVEIKR | binds |
| DOM7h-14 A43N (other) VL: DIQMTQSPSSLSASVGDRVTITCRASQWIGSQLSWYQQKPGKNPKLLIMWRSSLQSGVPSRFSGSGSGTDFTLTISSLQPEDFATYYCAQGAALPRTFGQGTKVEIKR | binds |
| DOM7h-14 A43P (other) VL: DIQMTQSPSSLSASVGDRVTITCRASQWIGSQLSWYQQKPGKPPKLLIMWRSSLQSGVPSRFSGSGSGTDFTLTISSLQPEDFATYYCAQGAALPRTFGQGTKVEIKR | binds |
| DOM7h-14 A43R (other) VL: DIQMTQSPSSLSASVGDRVTITCRASQWIGSQLSWYQQKPGKRPKLLIMWRSSLQSGVPSRFSGSGSGTDFTLTISSLQPEDFATYYCAQGAALPRTFGQGTKVEIKR | binds |
| DOM7h-14 A43S (other) VL: DIQMTQSPSSLSASVGDRVTITCRASQWIGSQLSWYQQKPGKSPKLLIMWRSSLQSGVPSRFSGSGSGTDFTLTISSLQPEDFATYYCAQGAALPRTFGQGTKVEIKR | binds |
| DOM7h-14 A43T (other) VL: DIQMTQSPSSLSASVGDRVTITCRASQWIGSQLSWYQQKPGKTPKLLIMWRSSLQSGVPSRFSGSGSGTDFTLTISSLQPEDFATYYCAQGAALPRTFGQGTKVEIKR | binds |
| DOM7h-14 A43V (other) VL: DIQMTQSPSSLSASVGDRVTITCRASQWIGSQLSWYQQKPGKVPKLLIMWRSSLQSGVPSRFSGSGSGTDFTLTISSLQPEDFATYYCAQGAALPRTFGQGTKVEIKR | binds |
| DOM7h-14 A43Y (other) VL: DIQMTQSPSSLSASVGDRVTITCRASQWIGSQLSWYQQKPGKYPKLLIMWRSSLQSGVPSRFSGSGSGTDFTLTISSLQPEDFATYYCAQGAALPRTFGQGTKVEIKR | binds |
| DOM7h-14 P44A (other) VL: DIQMTQSPSSLSASVGDRVTITCRASQWIGSQLSWYQQKPGKAAKLLIMWRSSLQSGVPSRFSGSGSGTDFTLTISSLQPEDFATYYCAQGAALPRTFGQGTKVEIKR | binds |
| DOM7h-14 P44C (other) VL: DIQMTQSPSSLSASVGDRVTITCRASQWIGSQLSWYQQKPGKACKLLIMWRSSLQSGVPSRFSGSGSGTDFTLTISSLQPEDFATYYCAQGAALPRTFGQGTKVEIKR | binds |

| Binder | binding result |
| --- | --- |
| DOM7h-14 P44D (other) VL: DIQMTQSPSSLSASVGDRVTITCRASQWIGSQLSWYQQKPGKADKLLIMWRSSLQSGVPSRFSGSGSGTDFTLTISSLQPEDFATYYCAQGAALPRTFGQGTKVEIKR | binds |
| DOM7h-14 P44E (other) VL: DIQMTQSPSSLSASVGDRVTITCRASQWIGSQLSWYQQKPGKAEKLLIMWRSSLQSGVPSRFSGSGSGTDFTLTISSLQPEDFATYYCAQGAALPRTFGQGTKVEIKR | binds |
| DOM7h-14 P44G (other) VL: DIQMTQSPSSLSASVGDRVTITCRASQWIGSQLSWYQQKPGKAGKLLIMWRSSLQSGVPSRFSGSGSGTDFTLTISSLQPEDFATYYCAQGAALPRTFGQGTKVEIKR | binds |
| DOM7h-14 P44H (other) VL: DIQMTQSPSSLSASVGDRVTITCRASQWIGSQLSWYQQKPGKAHKLLIMWRSSLQSGVPSRFSGSGSGTDFTLTISSLQPEDFATYYCAQGAALPRTFGQGTKVEIKR | binds |
| DOM7h-14 P44I (other) VL: DIQMTQSPSSLSASVGDRVTITCRASQWIGSQLSWYQQKPGKAIKLLIMWRSSLQSGVPSRFSGSGSGTDFTLTISSLQPEDFATYYCAQGAALPRTFGQGTKVEIKR | binds |
| DOM7h-14 P44K (other) VL: DIQMTQSPSSLSASVGDRVTITCRASQWIGSQLSWYQQKPGKAKKLLIMWRSSLQSGVPSRFSGSGSGTDFTLTISSLQPEDFATYYCAQGAALPRTFGQGTKVEIKR | binds |
| DOM7h-14 P44L (other) VL: DIQMTQSPSSLSASVGDRVTITCRASQWIGSQLSWYQQKPGKALKLLIMWRSSLQSGVPSRFSGSGSGTDFTLTISSLQPEDFATYYCAQGAALPRTFGQGTKVEIKR | binds |
| DOM7h-14 P44M (other) VL: DIQMTQSPSSLSASVGDRVTITCRASQWIGSQLSWYQQKPGKAMKLLIMWRSSLQSGVPSRFSGSGSGTDFTLTISSLQPEDFATYYCAQGAALPRTFGQGTKVEIKR | binds |
| DOM7h-14 P44N (other) VL: DIQMTQSPSSLSASVGDRVTITCRASQWIGSQLSWYQQKPGKANKLLIMWRSSLQSGVPSRFSGSGSGTDFTLTISSLQPEDFATYYCAQGAALPRTFGQGTKVEIKR | binds |
| DOM7h-14 P44Q (other) VL: DIQMTQSPSSLSASVGDRVTITCRASQWIGSQLSWYQQKPGKAQKLLIMWRSSLQSGVPSRFSGSGSGTDFTLTISSLQPEDFATYYCAQGAALPRTFGQGTKVEIKR | binds |
| DOM7h-14 P44R (other) VL: DIQMTQSPSSLSASVGDRVTITCRASQWIGSQLSWYQQKPGKARKLLIMWRSSLQSGVPSRFSGSGSGTDFTLTISSLQPEDFATYYCAQGAALPRTFGQGTKVEIKR | binds |
| DOM7h-14 P44S (other) VL: DIQMTQSPSSLSASVGDRVTITCRASQWIGSQLSWYQQKPGKASKLLIMWRSSLQSGVPSRFSGSGSGTDFTLTISSLQPEDFATYYCAQGAALPRTFGQGTKVEIKR | binds |
| DOM7h-14 P44T (other) VL: DIQMTQSPSSLSASVGDRVTITCRASQWIGSQLSWYQQKPGKATKLLIMWRSSLQSGVPSRFSGSGSGTDFTLTISSLQPEDFATYYCAQGAALPRTFGQGTKVEIKR | binds |
| DOM7h-14 P44V (other) VL: DIQMTQSPSSLSASVGDRVTITCRASQWIGSQLSWYQQKPGKAVKLLIMWRSSLQSGVPSRFSGSGSGTDFTLTISSLQPEDFATYYCAQGAALPRTFGQGTKVEIKR | binds |
| DOM7h-14 P44W (other) VL: DIQMTQSPSSLSASVGDRVTITCRASQWIGSQLSWYQQKPGKAWKLLIMWRSSLQSGVPSRFSGSGSGTDFTLTISSLQPEDFATYYCAQGAALPRTFGQGTKVEIKR | binds |
| DOM7h-14 Q38A (other) VL: DIQMTQSPSSLSASVGDRVTITCRASQWIGSQLSWYQAKPGKAPKLLIMWRSSLQSGVPSRFSGSGSGTDFTLTISSLQPEDFATYYCAQGAALPRTFGQGTKVEIKR | binds |
| DOM7h-14 Q38C (other) VL: DIQMTQSPSSLSASVGDRVTITCRASQWIGSQLSWYQCKPGKAPKLLIMWRSSLQSGVPSRFSGSGSGTDFTLTISSLQPEDFATYYCAQGAALPRTFGQGTKVEIKR | binds |
| DOM7h-14 Q38D (other) VL: DIQMTQSPSSLSASVGDRVTITCRASQWIGSQLSWYQDKPGKAPKLLIMWRSSLQSGVPSRFSGSGSGTDFTLTISSLQPEDFATYYCAQGAALPRTFGQGTKVEIKR | binds |
